T1: Recombinant Human IL-17 (human, UniProt Q16552 20-155, limits assumed)
T1 sequence (looked up): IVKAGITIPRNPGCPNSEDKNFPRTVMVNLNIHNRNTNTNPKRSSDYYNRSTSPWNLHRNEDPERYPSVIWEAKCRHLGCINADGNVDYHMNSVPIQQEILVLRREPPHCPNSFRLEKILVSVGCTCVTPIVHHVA


Experiments:
Recombinant Human IL-1β = Recombinant Human IL-1β (human, UniProt P01584 117-269); assay: cell-based or functional assay
Recombinant Human IL-17 = target: T1, Recombinant Human IL-17; assay: cell-based or functional assay

Binder | N-Terminal VD IL-1β Neutralization Assay EC50 (Recombinant Human IL-1β) [pM] | C-terminal VD IL-17 Neutralization Assay EC50 (Recombinant Human IL-17) [pM] | C-Terminal VD IL-1β Neutralization Assay EC50 (Recombinant Human IL-1β) [pM] | N-terminal VD IL-17 Neutralization Assay EC50 (Recombinant Human IL-17) [pM]
DVD1589 (bispecific antibody, human IgG1, kappa) heavy: not shown light: DIQMTQSPSSLSASVGDRVTITCRASGNIHNYLTWYQQTPGKAPKLLIYNAKTLADGVPSRFSGSGSGTDYTFTISSLQPEDIATYYCQHFWSIPYTFGQGTKLQITRTVAAPSVFIFPPDIQMTQSPSSLSASVGDRVTITCRASSGIISYIDWFQQKPGKAPKRLIYATFDLASGVPSRFSGSGSGTDYTLTISSLQPEDFATYYCRQVGSYPETFGQGTKLEIKRTVAAPSVFIFPPSDEQLKSGTASVVCLLNNFYPREAKVQWKVDNALQSGNSQESVTEQDSKDSTYSLSSTLTLSKADYEKHKVYACEVTHQGLSSPVTKSFNRGEC | 6.8 | 1.1 |  | 
DVD1591 (bispecific antibody, human IgG1, kappa) heavy: not shown light: DIQMTQSPSSLSASVGDRVTITCRASGNIHNYLTWYQQTPGKAPKLLIYNAKTLADGVPSRFSGSGSGTDYTFTISSLQPEDIATYYCQHFWSIPYTFGQGTKLQITRTVAAPSVFIFPPDIQMTQSPSSLSASVGDRVTITCRASSGIISYIDWFQQKPGKAPKRLIYATFDLASGVPSRFSGSGSGTDYTLTISSLQPEDFATYYCRQVGSYPETFGQGTKLEIKRTVAAPSVFIFPPSDEQLKSGTASVVCLLNNFYPREAKVQWKVDNALQSGNSQESVTEQDSKDSTYSLSSTLTLSKADYEKHKVYACEVTHQGLSSPVTKSFNRGEC | 2.3 | 39.3 |  | 
DVD1291 (bispecific antibody, human IgG1, kappa) heavy: not shown light: EIVLTQSPDFQSVTPKEKVTITCRASQNIGSELHWYQQKPDQSPKLLIKYASHSISGVPSRFSGSGSGTDFTLTINGLEAEDAATYYCHQSDTLPHTFGQGTKVDIKRTVAAPETTVTQSPSSLSASVGDRVTITCITSTDIDVDMNWYQQKPGKPPKLLISQGNTLRPGVPSRFSSSGSGTDFTFTISSLQPEDFATYYCLQSDNLPLTFGQGTKLEIKRTVAAPSVFIFPPSDEQLKSGTASVVCLLNNFYPREAKVQWKVDNALQSGNSQESVTEQDSKDSTYSLSSTLTLSKADYEKHKVYACEVTHQGLSSPVTKSFNRGEC |  |  | > 100000 | 6.2
DVD1599 (bispecific antibody, human IgG1, kappa) heavy: not shown light: DIQMTQSPSSLSASVGDRVTITCRASGNIHNYLTWYQQTPGKAPKLLIYNAKTLADGVPSRFSGSGSGTDYTFTISSLQPEDIATYYCQHFWSIPYTFGQGTKLQITRTVAAPSVFIFPPEIVLTQSPDFQSVTPKEKVTITCRASQDIGSELHWYQQKPDQPPKLLIKYASHSTSGVPSRFSGSGSGTDFTLTINGLEAEDAGTYYCHQTDSLPYTFGPGTKVDIKRTVAAPSVFIFPPSDEQLKSGTASVVCLLNNFYPREAKVQWKVDNALQSGNSQESVTEQDSKDSTYSLSSTLTLSKADYEKHKVYACEVTHQGLSSPVTKSFNRGEC | 4.8 | 50.4 |  | 
DVD1601 (bispecific antibody, human IgG1, kappa) heavy: not shown light: DIQMTQSPSSLSASVGDRVTITCRASGNIHNYLTWYQQTPGKAPKLLIYNAKTLADGVPSRFSGSGSGTDYTFTISSLQPEDIATYYCQHFWSIPYTFGQGTKLQITRTVAAPSVFIFPPEIVLTQSPDFQSVTPKEKVTITCRASQDIGSELHWYQQKPDQPPKLLIKYASHSTSGVPSRFSGSGSGTDFTLTINGLEAEDAGTYYCHQTDSLPYTFGPGTKVDIKRTVAAPSVFIFPPSDEQLKSGTASVVCLLNNFYPREAKVQWKVDNALQSGNSQESVTEQDSKDSTYSLSSTLTLSKADYEKHKVYACEVTHQGLSSPVTKSFNRGEC | 3.6 | 26.4 |  | 
DVD1590 (bispecific antibody, human IgG1, kappa) heavy: not shown light: DIQMTQSPSSLSASVGDRVTITCRASSGIISYIDWFQQKPGKAPKRLIYATFDLASGVPSRFSGSGSGTDYTLTISSLQPEDFATYYCRQVGSYPETFGQGTKLEIKRTVAAPSVFIFPPDIQMTQSPSSLSASVGDRVTITCRASGNIHNYLTWYQQTPGKAPKLLIYNAKTLADGVPSRFSGSGSGTDYTFTISSLQPEDIATYYCQHFWSIPYTFGQGTKLQITRTVAAPSVFIFPPSDEQLKSGTASVVCLLNNFYPREAKVQWKVDNALQSGNSQESVTEQDSKDSTYSLSSTLTLSKADYEKHKVYACEVTHQGLSSPVTKSFNRGEC |  |  | 1600 | 1.6
DVD1592 (bispecific antibody, human IgG1, kappa) heavy: not shown light: DIQMTQSPSSLSASVGDRVTITCRASSGIISYIDWFQQKPGKAPKRLIYATFDLASGVPSRFSGSGSGTDYTLTISSLQPEDFATYYCRQVGSYPETFGQGTKLEIKRTVAAPSVFIFPPDIQMTQSPSSLSASVGDRVTITCRASGNIHNYLTWYQQTPGKAPKLLIYNAKTLADGVPSRFSGSGSGTDYTFTISSLQPEDIATYYCQHFWSIPYTFGQGTKLQITRTVAAPSVFIFPPSDEQLKSGTASVVCLLNNFYPREAKVQWKVDNALQSGNSQESVTEQDSKDSTYSLSSTLTLSKADYEKHKVYACEVTHQGLSSPVTKSFNRGEC |  |  | 109 | 11.7
DVD1593 (bispecific antibody, human IgG1, kappa) heavy: not shown light: DTQVTQSPSSLSASVGDRVTITCITSTDIDVDMNWYQQKPGKPPKLLISQGNTLRPGVPSRFSSSGSGTDFTFTISSLQPEDFATYYCLQSDNLPLTFGQGTKLEIKRTVAAPSVFIFPPDIQMTQSPSSLSASVGDRVTITCRASSGIISYIDWFQQKPGKAPKRLIYATFDLASGVPSRFSGSGSGTDYTLTISSLQPEDFATYYCRQVGSYPETFGQGTKLEIKRTVAAPSVFIFPPSDEQLKSGTASVVCLLNNFYPREAKVQWKVDNALQSGNSQESVTEQDSKDSTYSLSSTLTLSKADYEKHKVYACEVTHQGLSSPVTKSFNRGEC | 184 | 1 |  | 
DVD1597 (bispecific antibody, human IgG1, kappa) heavy: not shown light: ETTVTQSPSSLSASVGDRVTITCITSTDIDVDMNWYQQKPGKPPKLLISQGNTLRPGVPSRFSSSGSGTDFTFTISSLQPEDFATYYCLQSDNLPLTFGQGTKLEIKRTVAAPSVFIFPPDIQMTQSPSSLSASVGDRVTITCRASSGIISYIDWFQQKPGKAPKRLIYATFDLASGVPSRFSGSGSGTDYTLTISSLQPEDFATYYCRQVGSYPETFGQGTKLEIKRTVAAPSVFIFPPSDEQLKSGTASVVCLLNNFYPREAKVQWKVDNALQSGNSQESVTEQDSKDSTYSLSSTLTLSKADYEKHKVYACEVTHQGLSSPVTKSFNRGEC | 326 | 0.8 |  | 
DVD1596 (bispecific antibody, human IgG1, kappa) heavy: not shown light: DIQMTQSPSSLSASVGDRVTITCRASSGIISYIDWFQQKPGKAPKRLIYATFDLASGVPSRFSGSGSGTDYTLTISSLQPEDFATYYCRQVGSYPETFGQGTKLEIKRTVAAPSVFIFPPDTVVTQSPAFLSVTPGEKVTITCITSTDIDVDMNWYQQKPDQPPKLLISQGNTLRPGVPSRFSSSGSGTDFTFTISSLEAEDAATYYCLQSDNLPLTFGQGTKLEIKRTVAAPSVFIFPPSDEQLKSGTASVVCLLNNFYPREAKVQWKVDNALQSGNSQESVTEQDSKDSTYSLSSTLTLSKADYEKHKVYACEVTHQGLSSPVTKSFNRGEC |  |  | 3440 | 0.7
DVD1600 (bispecific antibody, human IgG1, kappa) heavy: not shown light: EIVLTQSPDFQSVTPKEKVTITCRASQDIGSELHWYQQKPDQPPKLLIKYASHSTSGVPSRFSGSGSGTDFTLTINGLEAEDAGTYYCHQTDSLPYTFGPGTKVDIKRTVAAPSVFIFPPDIQMTQSPSSLSASVGDRVTITCRASGNIHNYLTWYQQTPGKAPKLLIYNAKTLADGVPSRFSGSGSGTDYTFTISSLQPEDIATYYCQHFWSIPYTFGQGTKLQITRTVAAPSVFIFPPSDEQLKSGTASVVCLLNNFYPREAKVQWKVDNALQSGNSQESVTEQDSKDSTYSLSSTLTLSKADYEKHKVYACEVTHQGLSSPVTKSFNRGEC |  |  | 794 | 5.5
DVD1594 (bispecific antibody, human IgG1, kappa) heavy: not shown light: DIQMTQSPSSLSASVGDRVTITCRASSGIISYIDWFQQKPGKAPKRLIYATFDLASGVPSRFSGSGSGTDYTLTISSLQPEDFATYYCRQVGSYPETFGQGTKLEIKRTVAAPSVFIFPPDTQVTQSPSSLSASVGDRVTITCITSTDIDVDMNWYQQKPGKPPKLLISQGNTLRPGVPSRFSSSGSGTDFTFTISSLQPEDFATYYCLQSDNLPLTFGQGTKLEIKRTVAAPSVFIFPPSDEQLKSGTASVVCLLNNFYPREAKVQWKVDNALQSGNSQESVTEQDSKDSTYSLSSTLTLSKADYEKHKVYACEVTHQGLSSPVTKSFNRGEC |  |  | 9100 | 2.5
DVD1598 (bispecific antibody, human IgG1, kappa) heavy: not shown light: DIQMTQSPSSLSASVGDRVTITCRASSGIISYIDWFQQKPGKAPKRLIYATFDLASGVPSRFSGSGSGTDYTLTISSLQPEDFATYYCRQVGSYPETFGQGTKLEIKRTVAAPSVFIFPPETTVTQSPSSLSASVGDRVTITCITSTDIDVDMNWYQQKPGKPPKLLISQGNTLRPGVPSRFSSSGSGTDFTFTISSLQPEDFATYYCLQSDNLPLTFGQGTKLEIKRTVAAPSVFIFPPSDEQLKSGTASVVCLLNNFYPREAKVQWKVDNALQSGNSQESVTEQDSKDSTYSLSSTLTLSKADYEKHKVYACEVTHQGLSSPVTKSFNRGEC |  |  | 11900 | 5.3
DVD1595 (bispecific antibody, human IgG1, kappa) heavy: not shown light: DTVVTQSPAFLSVTPGEKVTITCITSTDIDVDMNWYQQKPDQPPKLLISQGNTLRPGVPSRFSSSGSGTDFTFTISSLEAEDAATYYCLQSDNLPLTFGQGTKLEIKRTVAAPSVFIFPPDIQMTQSPSSLSASVGDRVTITCRASSGIISYIDWFQQKPGKAPKRLIYATFDLASGVPSRFSGSGSGTDYTLTISSLQPEDFATYYCRQVGSYPETFGQGTKLEIKRTVAAPSVFIFPPSDEQLKSGTASVVCLLNNFYPREAKVQWKVDNALQSGNSQESVTEQDSKDSTYSLSSTLTLSKADYEKHKVYACEVTHQGLSSPVTKSFNRGEC | 204 | 1.9 |  | 

— patent US20120034160A1 (AbbVie / Abbott, published 2012)
